Biological target: GST-TBP, GST-tagged full-length human TBP (human) (UniProt P20226)
Experiment: pull-down; GST pull-down: GST-TBP, GST-TFIIB or TBP fragments on glutathione beads; analytes in buffer B2 (150 mM NaCl), 1 h at 4°C, four washes, Western blot

Sequence of GST-TBP, GST-tagged full-length human TBP (human) (P20226 whole entry, the tested form may be a part): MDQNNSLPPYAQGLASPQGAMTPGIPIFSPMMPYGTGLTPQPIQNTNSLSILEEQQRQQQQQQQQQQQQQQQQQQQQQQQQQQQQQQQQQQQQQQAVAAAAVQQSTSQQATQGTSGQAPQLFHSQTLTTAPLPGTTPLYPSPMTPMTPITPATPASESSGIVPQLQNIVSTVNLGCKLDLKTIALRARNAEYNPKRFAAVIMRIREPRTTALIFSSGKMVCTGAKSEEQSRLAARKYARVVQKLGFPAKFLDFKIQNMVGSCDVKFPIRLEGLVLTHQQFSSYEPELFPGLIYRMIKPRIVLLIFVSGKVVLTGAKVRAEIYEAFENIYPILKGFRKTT

**Q.** With “SNAP complex (SNAPc) (from UniProt Q5SXM2 1-1469; Q92966 1-411; Q13487 1-334; Q16533 1-368; O75971 1-98)” as the substance, how does the increase in SNAPc recruitment to GST-TBP on addition of TFIIA read?
**A.** 60%

From paper PMC6004067
